Measured values taken from patent publication US20060177432.

Test system: T1, 6xHis-PEBP (recombinant mouse PEBP with a 6xHis-tag at the N-terminus)
T1 sequence: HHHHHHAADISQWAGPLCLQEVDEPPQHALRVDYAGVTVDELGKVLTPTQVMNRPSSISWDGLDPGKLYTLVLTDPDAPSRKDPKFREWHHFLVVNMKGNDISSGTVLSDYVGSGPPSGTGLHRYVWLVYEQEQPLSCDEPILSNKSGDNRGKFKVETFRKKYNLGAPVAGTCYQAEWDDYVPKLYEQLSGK

Chain of trypsin (P00760 24-246): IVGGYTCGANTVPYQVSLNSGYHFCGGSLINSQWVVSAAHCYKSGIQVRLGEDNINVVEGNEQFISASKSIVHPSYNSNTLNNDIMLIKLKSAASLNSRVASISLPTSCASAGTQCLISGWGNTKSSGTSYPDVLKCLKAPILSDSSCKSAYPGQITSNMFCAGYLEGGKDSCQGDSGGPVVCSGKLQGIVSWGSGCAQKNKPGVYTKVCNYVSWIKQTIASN
Chain of pancreatic elastase (P00772 27-266): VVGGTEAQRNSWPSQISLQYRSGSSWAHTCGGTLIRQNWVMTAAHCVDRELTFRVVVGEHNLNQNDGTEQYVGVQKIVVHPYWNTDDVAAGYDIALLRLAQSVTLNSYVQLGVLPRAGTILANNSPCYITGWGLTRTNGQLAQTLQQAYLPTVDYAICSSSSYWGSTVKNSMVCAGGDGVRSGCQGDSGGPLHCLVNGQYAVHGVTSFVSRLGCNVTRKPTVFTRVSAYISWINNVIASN
Chain of tissue plasminogen activator (P00750 36-562): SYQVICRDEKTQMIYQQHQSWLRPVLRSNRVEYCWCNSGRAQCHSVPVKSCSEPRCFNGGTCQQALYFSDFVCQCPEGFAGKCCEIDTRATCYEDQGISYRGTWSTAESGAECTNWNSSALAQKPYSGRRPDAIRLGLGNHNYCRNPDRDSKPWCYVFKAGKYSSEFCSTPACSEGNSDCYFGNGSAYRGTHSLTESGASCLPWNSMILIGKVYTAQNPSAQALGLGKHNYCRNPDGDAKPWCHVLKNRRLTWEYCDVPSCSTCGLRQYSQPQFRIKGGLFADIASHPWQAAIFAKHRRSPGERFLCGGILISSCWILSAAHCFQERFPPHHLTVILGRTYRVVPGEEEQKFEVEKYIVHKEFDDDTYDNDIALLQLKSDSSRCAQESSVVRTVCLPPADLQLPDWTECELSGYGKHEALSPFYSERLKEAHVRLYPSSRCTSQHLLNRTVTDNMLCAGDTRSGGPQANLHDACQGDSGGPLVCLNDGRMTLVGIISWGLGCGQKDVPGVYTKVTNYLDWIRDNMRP

Substance	amidolytic activity (chromogenic substrate, 405 nm)
tissue plasminogen activator	The amidolytic activities of ... tissue plasminogen activator (0.5 pmol) ... were not affected
pancreatic elastase	The amidolytic activities of ... pancreatic elastase (4 pmol) were not affected
trypsin	The amidolytic activities of trypsin (0.005 pmol) ... were not affected
